Numbering of substitutions follows the chain as printed. Several values for one entry are separate records, joined by “and”; a condition that tells them apart may be missing. Equal values may be shown once. Read-outs that look alike come from different tables or passages of the source. One block for each binder: values may come before it.
Columns and labels:
[1] = biological target: T1, human IL-15 complexed with the IL-15 Receptor-alpha (human, UniProt P40933 49-162); assay: cell-based or functional assay
Target sequence in this assay (P40933 49-162 limits assumed, one chain of several): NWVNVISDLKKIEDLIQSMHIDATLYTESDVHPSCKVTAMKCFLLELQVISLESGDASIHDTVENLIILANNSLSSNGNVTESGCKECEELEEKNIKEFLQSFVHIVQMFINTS

[2] = biological target: T1, human IL-15 complexed with the IL-15 …; assay: cell-based or functional assay; remark: listed apart in the source
Target sequence in this assay (P40933 49-162 limits assumed, chain 1 of 2, one chain of several): as the sequence (P40933 49-162 limits assumed, one chain of several) above

[3] = biological target: T1, human IL-15 complexed with the IL-15 …; assay: cell-based or functional assay; remark: listed apart in the source
Target sequence in this assay (P40933 49-162 limits assumed, one chain of several): as above

[4] = biological target: T1, human IL-15 complexed with the IL-15 …; assay: SPR
Target sequence in this assay (P40933 49-162 limits assumed, one chain of several): as above

[5] = biological target: T1, human IL-15 complexed with the IL-15 …; assay: SPR; remark: listed apart in the source
Target sequence in this assay (P40933 49-162 limits assumed, one chain of several): as above

[6] = biological target: T1, human IL-15 complexed with the IL-15 …; assay: SPR; remark: listed apart in the source
Target sequence in this assay (P40933 49-162 limits assumed, one chain of several): as above

[7] = biological target: T1, human IL-15 complexed with the IL-15 …; assay: SPR; remark: listed apart in the source
Target sequence in this assay (P40933 49-162 limits assumed, one chain of several): as above

[8] = biological target: T1, human IL-15 complexed with the IL-15 …; assay: SPR; remark: listed apart in the source
[9] = biological target: T1, human IL-15 complexed with the IL-15 …; assay: SPR; remark: listed apart in the source
[10] = biological target: T1, human IL-15 complexed with the IL-15 …; assay: SPR; remark: listed apart in the source
[11] = biological target: T1, human IL-15 complexed with the IL-15 …; assay: SPR; remark: listed apart in the source
IL-9 = IL-9 (UniProt P15248 19-144); assay: SPR, antibody captured on Protein A chip
IL-21 = IL-21 (UniProt Q9HBE4 30-162, limits assumed); assay: SPR, antibody captured on Protein A chip
IL-4 = biological target: T2, IL-4 (UniProt P05112 25-153); assay: SPR, antibody captured on Protein A chip
T2 sequence (looked up): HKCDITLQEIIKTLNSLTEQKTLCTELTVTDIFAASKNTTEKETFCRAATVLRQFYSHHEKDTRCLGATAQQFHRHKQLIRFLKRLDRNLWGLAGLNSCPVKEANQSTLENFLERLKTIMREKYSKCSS

IL-2 = IL-2 (UniProt P60568 21-153); assay: SPR, antibody captured on Protein A chip
[12] = biological target: T3, uncomplexed IL-15 Receptor α (human); assay: SPR, antibody captured on Protein A chip
T3 construct: also called IL-15Rα; IL15Rα
T3 chain: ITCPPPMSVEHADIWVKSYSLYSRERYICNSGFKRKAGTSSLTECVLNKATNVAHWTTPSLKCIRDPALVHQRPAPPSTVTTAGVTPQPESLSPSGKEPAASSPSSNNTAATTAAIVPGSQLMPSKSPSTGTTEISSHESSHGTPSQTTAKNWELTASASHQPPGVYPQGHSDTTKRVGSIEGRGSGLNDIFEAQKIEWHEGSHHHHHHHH

IL-7 = biological target: T4, IL-7 (UniProt P13232 26-177); assay: SPR, antibody captured on Protein A chip
T4 sequence (looked up): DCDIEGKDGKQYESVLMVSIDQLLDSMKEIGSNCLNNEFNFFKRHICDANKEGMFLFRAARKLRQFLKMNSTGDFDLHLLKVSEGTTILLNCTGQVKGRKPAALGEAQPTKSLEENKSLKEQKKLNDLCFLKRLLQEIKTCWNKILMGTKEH

[13] = biological target: T1, human IL-15 complexed with the IL-15 …; assay: cell-based or functional assay; remark: listed apart in the source

Sequence of IL-9 (P15248 19-144 limits assumed): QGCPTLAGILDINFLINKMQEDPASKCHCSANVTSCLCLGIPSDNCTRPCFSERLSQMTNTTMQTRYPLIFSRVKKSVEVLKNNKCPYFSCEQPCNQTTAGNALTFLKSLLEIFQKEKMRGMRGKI
Sequence of IL-2 (P60568 21-153 limits assumed): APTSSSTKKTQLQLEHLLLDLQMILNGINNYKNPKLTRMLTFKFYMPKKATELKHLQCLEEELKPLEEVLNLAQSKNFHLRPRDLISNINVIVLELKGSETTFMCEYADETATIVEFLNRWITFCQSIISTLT
Sequence of IL-21 (Q9HBE4 30-162 limits assumed): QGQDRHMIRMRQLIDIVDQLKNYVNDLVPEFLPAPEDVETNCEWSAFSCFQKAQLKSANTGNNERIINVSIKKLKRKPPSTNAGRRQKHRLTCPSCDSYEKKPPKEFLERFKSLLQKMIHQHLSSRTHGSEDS

B1: Antibody 11 (antibody, V domains shown)
VH: QVQLQESGPGLVKPSGTLSLTCAVSGGSISSSNWWSWVRQPPGKGLEWIGEIYHYGYTNYNPSLKSRVTISVDKSKNQFSLKLISVTAADTAVYYCAREGIGWPSFDYWGQGTLVTVSS
VL: SSELTQDPAASVALGQTVRITCQGDTLRNYYASWYQQKPGQAPILVIYGKNNRPSGIPDRFSGSSSGNTASLTITGAQAEDEADYYCNSRDSSGKNLVFGGGTKLTVLG
NK-92 cell proliferation assay, potency (IC50) [1]: 0.0074 nM
IC 50 (NK-92) in pM [2]: 6.3 pM
fold improvement of IC50 in the NK-92 cell proliferation assay compared to Antibody 4 [3]: ≥ 10 fold

B2: VH_N058Q (antibody, V domains shown)
VH: B1 VH with Y55S, Y57N, N59Q
VL: SSELTQDPAASVALGQTVRITCQGDTLRNYYASWYQQKPGQAPILVIYGKNNRPSGIPDRFSGSSSGNTASLTITGAQAEDEADYYCNSRDSSGKNLVFGGGTKLTVL
Kd [4]: 0.765 nM

B3: VL_K051A (antibody, V domains shown)
VH: B1 VH with Y55S, Y57N
VL: B2 VL with K50A
notes: Antibody 4 with one substitution; also called ANTIBODY 30
Kd [5]: 0.942 nM

B4: VL_D092S (antibody, V domains shown)
VH: B1 VH with Y55S, Y57N
VL: B2 VL with D91S
notes: Antibody 4 with one substitution; also called ANTIBODY 16
Kd [6]: 2.15 nM

B6: VL_K051H (antibody, V domains shown)
VH: B1 VH with Y55S, Y57N
VL: B2 VL with K50H
notes: Antibody 4 with one substitution; also called ANTIBODY 31
Kd [8]: 0.73 nM

B10: VL_G050S (antibody, V domains shown)
VH: B1 VH with Y55S, Y57N
VL: B2 VL with G49S
notes: Antibody 4 with one substitution; also called ANTIBODY 29
Kd [9]: 1.58 nM

B12: VH_T057D (antibody, V domains shown)
VH: B1 VH with Y55S, Y57N, T58D
VL: B2 VL
notes: Antibody 4 with one substitution; also called ANTIBODY 25
Kd [4]: 0.64 nM

B13: Antibody 70b (antibody, human IgG1, lambda)
heavy: QVQLQESGPGLVKPSGTLSLTCAVSGGSISSSNWWSWVRQPPGKGLEWIGEIYHYGYTNYNPSLKSRVTISVDKSKNQFSLKLSSVTAADTAVYYCAREGIGWPSFDYWGQGTLVTVSSASTKGPSVFPLAPSSKSTSGGTAALGCLVKDYFPEPVTVSWNSGALTSGVHTFPAVLQSSGLYSLSSVVTVPSSSLGTQTYICNVNHKPSNTKVDKKVEPKSCDKTHTCPPCPAPELLGGPSVFLFPPKPKDTLYITREPEVTCVVVDVSHEDPEVKFNWYVDGVEVHNAKTKPREEQYNSTYRVVSVLTVLHQDWLNGKEYKCKVSNKALPAPIEKTISKAKGQPREPQVYTLPPSRDELTKNQVSLTCLVKGFYPSDIAVEWESNGQPENNYKTTPPVLDSDGSFFLYSKLTVDKSRWQQGNVFSCSVMHEALHNHYTQKSLSLSPG
light: SSELTQDPAASVALGQTVRITCQGDTLRSYYASWYQQKPGQAPILVIYGKNNRPSGIPDRFSGSSSGNTASLTITGAQAEDEADYYCNSRDLSGKNLVFGGGTKLTVLGQPKAAPSVTLFPPSSEELQANKATLVCLISDFYPGAVTVAWKADSSPVKAGVETTTPSKQSNNKYAASSYLSLTPEQWKSHRSYSCQVTHEGSTVEKTVAPTECS
Kd [11]: 0.154 nM and 0.157 nM
koff [11]: 3.92e-05 s⁻¹ and 3.89e-05 s⁻¹
kon [11]: 249000 M⁻¹ s⁻¹ and 254000 M⁻¹ s⁻¹
binding result (IL-9): no binding (tested: 10 µg/mL)
binding result (IL-21): no binding (tested: 10 µg/mL)
binding result (IL-4): no binding (tested: 10 µg/mL)
binding result (IL-2): no binding (tested: 10 µg/mL)
binding result [12]: no binding (tested: 10 µg/mL)
binding result (IL-7): no binding (tested: 10 µg/mL)
Max IC50 (pM), NK-92 proliferation assay [13]: 16.6 pM
Mean IC50 (pM), NK-92 proliferation assay [13]: 13.3 pM
Min IC50 (pM), NK-92 proliferation assay [13]: 10.6 pM

B14: Antibody 70e (antibody, human IgG4 S228P, lambda)
heavy: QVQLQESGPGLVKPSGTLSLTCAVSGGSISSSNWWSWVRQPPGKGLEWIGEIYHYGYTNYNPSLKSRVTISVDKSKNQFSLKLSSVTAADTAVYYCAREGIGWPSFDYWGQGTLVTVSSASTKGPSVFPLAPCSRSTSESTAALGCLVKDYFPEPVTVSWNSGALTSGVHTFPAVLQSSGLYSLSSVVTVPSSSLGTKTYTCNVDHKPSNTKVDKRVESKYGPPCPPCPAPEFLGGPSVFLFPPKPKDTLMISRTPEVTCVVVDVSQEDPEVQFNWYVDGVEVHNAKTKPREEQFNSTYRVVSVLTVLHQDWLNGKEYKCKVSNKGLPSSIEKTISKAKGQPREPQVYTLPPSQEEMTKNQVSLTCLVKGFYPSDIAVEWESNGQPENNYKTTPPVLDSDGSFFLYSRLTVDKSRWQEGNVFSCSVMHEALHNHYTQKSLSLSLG
light: B13 light
Kd [11]: 0.174 nM and 0.193 nM
koff [11]: 4.31e-05 s⁻¹ and 4.58e-05 s⁻¹
kon [11]: 237000 M⁻¹ s⁻¹ and 247000 M⁻¹ s⁻¹
binding result (IL-9): no binding (tested: 10 µg/mL)
binding result (IL-21): no binding (tested: 10 µg/mL)
binding result (IL-4): no binding (tested: 10 µg/mL)
binding result (IL-2): no binding (tested: 10 µg/mL)
binding result [12]: no binding (tested: 10 µg/mL)
binding result (IL-7): no binding (tested: 10 µg/mL)
Max IC50 (pM), NK-92 proliferation assay [13]: 20.9 pM
Mean IC50 (pM), NK-92 proliferation assay [13]: 15.7 pM
Min IC50 (pM), NK-92 proliferation assay [13]: 11.7 pM

Now from value to binder:

Kd [7]: 0.784 nM
B5: VL_R054Y (antibody, V domains shown)
VH: B1 VH with Y55S, Y57N
VL: B2 VL with R53Y
notes: Antibody 4 with one substitution; also called ANTIBODY 35

Kd [5]: 0.865 nM
B7: VL_K051L (antibody, V domains shown)
VH: B1 VH with Y55S, Y57N
VL: B2 VL with K50L
notes: Antibody 4 with one substitution; also called ANTIBODY 32

Kd [7]: 0.845 nM
B8: VL_R054L (antibody, V domains shown)
VH: B1 VH with Y55S, Y57N
VL: B2 VL with R53L
notes: Antibody 4 with one substitution; also called ANTIBODY 33

Kd [7]: 0.892 nM
B9: VL_R054Q (antibody, V domains shown)
VH: B1 VH with Y55S, Y57N
VL: B2 VL with R53Q
notes: Antibody 4 with one substitution; also called ANTIBODY 34

Kd [10]: 2.41 nM
B11: VL_N030S (antibody, V domains shown)
VH: B1 VH with Y55S, Y57N
VL: B2 VL with N29S
notes: Antibody 4 with one substitution; also called ANTIBODY 51
